Source: patent publication US20140364363A1

Target: insulin receptor, endogenous in 3T3-L1 preadipocytes (UniProt P15208)
Assay: cell-based or functional assay

Sequence of UniProt P15208 (P15208 28-1372 limits assumed): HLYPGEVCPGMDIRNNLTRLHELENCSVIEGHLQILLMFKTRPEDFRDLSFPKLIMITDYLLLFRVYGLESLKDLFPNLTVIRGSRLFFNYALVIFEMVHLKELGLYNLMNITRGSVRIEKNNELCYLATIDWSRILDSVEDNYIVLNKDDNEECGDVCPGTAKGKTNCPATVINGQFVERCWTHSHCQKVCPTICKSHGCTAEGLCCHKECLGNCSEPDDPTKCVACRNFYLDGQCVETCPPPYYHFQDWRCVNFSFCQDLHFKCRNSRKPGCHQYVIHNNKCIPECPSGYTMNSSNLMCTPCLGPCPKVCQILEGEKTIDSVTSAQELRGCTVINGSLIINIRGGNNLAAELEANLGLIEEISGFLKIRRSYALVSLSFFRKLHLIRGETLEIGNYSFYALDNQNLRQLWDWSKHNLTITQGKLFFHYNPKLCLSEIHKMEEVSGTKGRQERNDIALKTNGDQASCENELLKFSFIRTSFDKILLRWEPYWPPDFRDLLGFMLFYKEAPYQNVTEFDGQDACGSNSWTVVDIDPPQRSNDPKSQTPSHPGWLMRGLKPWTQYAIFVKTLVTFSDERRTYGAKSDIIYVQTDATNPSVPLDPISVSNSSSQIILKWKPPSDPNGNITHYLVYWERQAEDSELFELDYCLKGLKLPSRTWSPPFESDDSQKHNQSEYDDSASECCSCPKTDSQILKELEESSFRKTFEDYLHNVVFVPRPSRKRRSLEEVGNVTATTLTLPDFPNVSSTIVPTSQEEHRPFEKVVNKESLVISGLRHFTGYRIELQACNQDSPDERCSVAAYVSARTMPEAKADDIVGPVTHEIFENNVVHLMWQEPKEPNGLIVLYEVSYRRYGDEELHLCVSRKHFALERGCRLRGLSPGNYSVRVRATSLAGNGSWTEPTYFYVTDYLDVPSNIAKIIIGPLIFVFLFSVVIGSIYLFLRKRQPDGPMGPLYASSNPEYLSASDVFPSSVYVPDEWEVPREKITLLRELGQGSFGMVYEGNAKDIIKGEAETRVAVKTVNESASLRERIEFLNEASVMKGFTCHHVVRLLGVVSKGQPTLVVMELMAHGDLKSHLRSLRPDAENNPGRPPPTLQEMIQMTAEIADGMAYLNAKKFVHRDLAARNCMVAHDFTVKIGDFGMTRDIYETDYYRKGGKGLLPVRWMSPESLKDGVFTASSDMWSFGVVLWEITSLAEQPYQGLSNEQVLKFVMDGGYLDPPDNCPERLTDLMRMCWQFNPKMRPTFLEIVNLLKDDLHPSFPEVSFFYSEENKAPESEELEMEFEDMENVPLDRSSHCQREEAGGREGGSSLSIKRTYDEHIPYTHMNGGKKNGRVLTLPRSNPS

insulin-stimulated Akt-Ser473 peak phosphorylation, enhancement by overexpression [%]	insulin-stimulated ERK peak phosphorylation, enhancement by overexpression [%]	Substance
94	67	Gpc4Δ529SAG531::HHHHHH (ΔGpc4), soluble mutant lacking the GPI anchor attachment site, with N-terminal 6xHis tag (from UniProt P51655 19-528; P51655 532-557)
140	100	native Gpc4 with HA-tag inserted after the signal peptide, stably overexpressed in 3T3-L1 cells (from UniProt P51655 19-529)
